Data set [1] concerns bone marrow, spleen, kidneys and other organs. Description: Histopathology of normal organs (treatment-related microscopic observations). Type of data set: in vivo, Swiss Nude-Foxn1nu mice. The conditions noted are these: for Spleen, extramedullary haematopoiesis, mean score: vehicle 3.7; for Bone marrow, eosinophilic vacuolated cells, number of mice: vehicle 0. How it is done:
Once fixed, tumours, spleen, bone marrow (femur), jejunum, colon, tail (injection site), and kidneys were processed to paraffin blocks and tissues slides produced for immunohistochemical analyses or stained with haematoxylin and eosin (H&E) or sirius red (collagen staining) for histopathological examination.
All the slides were evaluated by a board-certified veterinary pathologist (S.L.) using a light microscope (Olympus BX41). The pH2AX and SST2 signal intensities were scored using a semi-quantitative approach (H-score), by multiplying the signal intensity score (0, absent; 1, weak; 2, moderate; 3, strong) with the percentage of labelled cells. The H-score, which ranges from 0 to 300, gives the relative weight of staining in a given tumour sample. Regarding the histopathological examination, the number of mitoses was counted in the areas of tumours with the highest mitotic figures in 1 high-power field at the objective 40. The severity of fibrosis was evaluated on a classical toxicologic pathology scale ranging from 0 (absent) to 5 (severe).

The nature of another data set: in vivo. To be noted: female, Swiss Nude-Foxn1nu, mouse, in vivo, iv, total radioactivity. How it is done:
(§1) Healthy female Swiss Nude-Foxn1nu mice, of 7 weeks old, were obtained from Charles River (Ecully, France). The animals were housed and cared for according to French and European regulations on animal experimentation. All procedures with animals were submitted to the Institutional Animal Care and Use Committee of Oncodesign (CNREEA Agreement N°91). Animal physical well-being was monitored on a daily basis, and animal weight was measured at least twice a week. Tumours were induced by subcutaneously injecting 1 × 10^7 AR42J cells in 200 μL of RPMI 1640 into the right flank of the mice. In order to improve cell engraftment, AR42J tumour cell implantation was performed 72 h after whole-body irradiation with a γ-source (2 Gy 60Co; BioMep, Bretenières, France).
(§2) All test substances, including the mixture of radiolabelling buffer and 0.9% NaCl solution administered in the vehicle group, were intravenously injected into the caudal vein once a week for 4 consecutive weeks. The treatment schedule was determined by the growth kinetics of the AR42J tumour model. The day of randomisation was considered as day 0. […] Tumour growth delay was estimated by calculating the median time taken to reach a tumour volume of 850 mm^3. Animals were sacrificed once their tumour volume exceeded 1500 mm^3. The study was stopped on day 83 because only 1 and 3 animals remained with non-progressing tumours in groups 3 and 4, respectively.
(§3) Twelve mice (3 in each group) were sacrificed at 96 h after the fourth administration of the test substances to evaluate at the same time toxicity and haematological parameters, and radioactivity uptake in tumours and organs after 4 cycles. The remaining 50 mice (10 in both groups 1 and 4, and 15 in both groups 2 and 3) were either sacrificed for ethical reasons on the last day of the study, on day 83. At 96 h, following the last treatment administration, individual tumours and organs of interest were collected, blotted dry, weighted, fixed in formalin, and the amount of radioactivity present in each organ was quantified using a γ-counter. The radioactivity uptake in tumour and organs was determined and expressed as MBq/g of tissue as well as percentage injected dose/g of tissue (%ID/g).

Data set [2] deals with AR42J pancreatic tumour-bearing mice. Description: In vivo biodistribution (radioactivity uptake in tumour and organs). The conditions noted are these: for Tumour radioactivity uptake / Femur radioactivity uptake / Spleen radioactivity uptake / Adrenals radioactivity uptake / Kidneys radioactivity uptake / Tail radioactivity uptake: 96 h after fourth injection, mean; for Tumour radioactivity uptake: SST2 expression High; for Femur radioactivity uptake / Spleen radioactivity uptake: SST2 expression Minimal; for Adrenals radioactivity uptake: SST2 expression Moderate; for Kidneys radioactivity uptake / Tail radioactivity uptake: SST2 expression None; for Correlation of radioactivity uptake with SST2 expression levels in organs: except in the kidneys. As for the experimental part: as §1, §2, §3

In data set [3] the target is T1, SST2 (AR42J rat pancreatic tumour membranes) (Rattus norvegicus, UniProt P30680).
T1 construct: which is not the case for the AR42J model endogenously expressing SST2; host or cells: AR42J rat acinar pancreatic tumour cell line (membrane preparation)
Description: Saturation binding assay on AR42J cell membranes. The conditions noted are these: AR42J cell membrane suspension 10 µg/well; radioligand 0.075-10 nM; one-site binding model; γ-counter; mean ± SEM. As for the experimental part: The SST2-expressing AR42J, acinar pancreatic tumour cell line derived from a transplantable tumour of a rat exocrine pancreas, was provided by ATCC (LGC Standards, Molsheim, France). Cells were cultured in RPMI 1640 medium (Dutscher, Bernolsheim, France), supplemented with 10% foetal calf serum (PAN-Biotech, Aidenbach, Germany), in a humidified atmosphere at 37 °C with 5% CO2. AR42J membranes were obtained by sonication in 50 mM Tris–HCl, pH 7.4, and centrifugation at 39,000× g for 10 min at 4 °C. The pellet was resuspended in the same buffer and centrifuged at 50,000 ×g for 10 min at 4 °C, and membranes in the resulting pellet were stored at −80 °C until further use.
Saturation binding assays were performed in vitro using AR42J cell membrane suspension (10 µg/well) incubated with increased concentrations (ranging between 0.075 and 10 nM) of the radioligand. […] Membrane-bound radio-peptide was counted in a γ-counter (COBRA 5003, Packard Instruments). The number of binding sites per cell was calculated and fitted to a one-site binding model in GraphPad Prism 8 to determine the dissociation constant (KD) and the number of binding sites (Bmax).

A further data set has as its system SST2-positive NETs. The conditions noted are these: in vivo; cited from earlier work.
The test system of another data set is kidney. The conditions noted are these: human, in vivo; cited from earlier work.
A further data set deals with human and rat SST2. The arrangement: method as in PMID 19910453. The conditions noted are these: ref [10]; cited from earlier work.
Where [4] appears, read: 15 MBq, Tail uptake (injection site), 15 MBq x 4, 96 h after fourth injection, mean (SEM).
Where [5] appears, read: 15 MBq, Tumour uptake, 15 MBq, i.v. once a week x 4, 96 h after fourth injection, mean (SEM).
The mark [6] stands for this setting: 15 MBq, compared with [^177Lu]Lu-DOTA-TATE at 15 or 30 MBq, 96 h.

“Also recorded” adds a separate entry of the source. Bridge positions count the residues as written; N and C are the ends. Square brackets hold non-standard residues; d marks the D form. Peptide text beside a SMILES is read from it. * marks the point of attachment. DOTA = O=C(O)CN1CCN(CC(=O)O)CCN(CC(=O)*)CCN(CC(=O)O)CC1; dPhe(4-NHCONH2) = NC(=O)Nc1ccc(C[C@@H](N)C(=O)O)cc1; Dihydroorotyl(S) = O=C1C[C@@H](C(=O)*)NC(=O)N1; Phe(4-Cl) = N[C@@H](Cc1ccc(Cl)cc1)C(=O)O; Phe(4-NH2) = Nc1ccc(C[C@H](N)C(=O)O)cc1

T1 sequence (P30680 whole entry): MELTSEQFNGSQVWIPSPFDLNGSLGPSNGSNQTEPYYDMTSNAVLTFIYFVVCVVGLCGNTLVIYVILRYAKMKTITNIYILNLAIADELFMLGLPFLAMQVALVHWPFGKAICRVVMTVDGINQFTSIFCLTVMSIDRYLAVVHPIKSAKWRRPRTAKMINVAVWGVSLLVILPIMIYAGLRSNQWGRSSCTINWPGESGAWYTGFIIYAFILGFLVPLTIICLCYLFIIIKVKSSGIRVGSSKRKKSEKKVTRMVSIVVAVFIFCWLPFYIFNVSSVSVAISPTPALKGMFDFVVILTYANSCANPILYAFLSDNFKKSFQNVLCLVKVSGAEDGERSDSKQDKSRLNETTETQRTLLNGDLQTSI

For the molecule `C[C@@H](O)[C@H](NC(=O)[C@@H]1CSSC[C@H](NC(=O)[C@@H](Cc2ccccc2)NC(=O)CN2CCN(CC(=O)O)CCN(CC(=O)O)CCN(CC(=O)O)CC2)C(=O)N[C@@H](Cc2ccc(O)cc2)C(=O)N[C@H](Cc2c[nH]c3ccccc23)C(=O)N[C@@H](CCCCN)C(=O)N[C@@H]([C@@H](C)O)C(=O)N1)C(=O)O` [[^177Lu]Lu-DOTA-TATE, metal not drawn], the “Spleen, extramedullary haematopoiesis, mean score” value in data set [1] (30 MBq x 4, 96 h) was found to be 2.3. In addition, the “Bone marrow, eosinophilic vacuolated cells, number of mice” value in data set [1] (30 MBq x 4, end of study, 11 mice examined) was “one animal”. The tissue uptake at 96 h turned out to be 0.59 %ID/g in “in vivo” (15 MBq, Adrenals uptake); 0.034 %ID/g in the data set “in vivo” (15 MBq, Femur uptake); 0.36 %ID/g in “in vivo” (15 MBq, Kidneys uptake); 0.018 %ID/g in “in vivo” (15 MBq, Spleen uptake); 0.055 %ID/g in the data set “in vivo” (setting [4]); 5.6 %ID/g in “in vivo” (setting [5]). The tissue uptake at 96 h in the data set “in vivo” (30 MBq, Adrenals uptake) came to 0.6 %ID/g; in “in vivo” (30 MBq, Femur uptake) it was 0.022 %ID/g; in the data set “in vivo” (30 MBq, Kidneys uptake), 0.51 %ID/g; in the data set “in vivo” (30 MBq, Spleen uptake), 0.015 %ID/g; in “in vivo” (30 MBq, Tail uptake (injection site), 30 MBq x 4, 96 h after fourth injection, mean (SEM)), 0.042 %ID/g; in “in vivo” (30 MBq, Tumour uptake, 30 MBq, i.v. once a week x 4, 96 h after fourth injection, mean (SEM)), 5.8 %ID/g. The results for the Tumour radioactivity uptake in data set [2] (15 MBq x 4) and in data set [2] (30 MBq x 4) were 1.0 MBq/g and 2.2 MBq/g, respectively. Also, the Femur radioactivity uptake in data set [2] (15 MBq x 4) was 0.006 MBq/g; in data set [2] (30 MBq x 4), 0.008 MBq/g. Besides, the Spleen radioactivity uptake is 0.0032 MBq/g in data set [2] (15 MBq x 4) and 0.006 MBq/g in data set [2] (30 MBq x 4). For the same molecule, the Adrenals radioactivity uptake in data set [2] (15 MBq x 4) is listed as 0.11 MBq/g; in data set [2] (30 MBq x 4) it was 0.23 MBq/g. The Kidneys radioactivity uptake in data set [2] (15 MBq x 4) came out at 0.066 MBq/g; in data set [2] (30 MBq x 4), 0.20 MBq/g. For the same molecule, the Tail radioactivity uptake was determined as 0.01 MBq/g in data set [2] (15 MBq x 4) and 0.016 MBq/g in data set [2] (30 MBq x 4). Moreover, the “Correlation of radioactivity uptake with SST2 expression levels in organs” value in data set [2] (15 MBq) is “overall well-correlated with SST2 expression levels in different organs, except in the kidneys”; in data set [2] (30 MBq), “overall well-correlated with SST2 expression levels in different organs, except in the kidneys”. Further, in data set [3], the Kd came to 0.48 ± 0.2 nM.

For `C[C@@H](O)[C@@H]1NC(=O)[C@H](CCCCN)NC(=O)[C@@H](Cc2ccc(NC(N)=O)cc2)NC(=O)[C@H](Cc2ccc(NC(=O)[C@@H]3CC(=O)NC(=O)N3)cc2)NC(=O)[C@H](NC(=O)[C@H](Cc2ccc(Cl)cc2)NC(=O)CN2CCN(CC(=O)O)CCN(CC(=O)O)CCN(CC(=O)O)CC2)CSSC[C@@H](C(=O)N[C@H](Cc2ccc(O)cc2)C(N)=O)NC1=O` [[^177Lu]Lu-satoreotide tetraxetan, metal not drawn] ({DOTA}-[Phe(4-Cl)][dC][Phe(4-NH2)](Dihydroorotyl(S))[dPhe(4-NHCONH2)]KTC[dY]-NH2; disulfide 2-7), the Safety profile entry in the data set on SST2-positive NETs is reported as “manageable safety profile”. The “Bone marrow, myeloid/erythroid ratio, mean score” value in data set [1] (15 MBq x 4, 96 h, vehicle 2.3) is listed as 3.0. Further, in data set [1] (15 MBq x 4, 96 h), the “Spleen, extramedullary haematopoiesis, mean score” value is reported as 2.3. Further, the “Bone marrow, eosinophilic vacuolated cells, number of mice” value in data set [1] (15 MBq x 4, end of study, examined 11 (DOTATATE), 7 (satoreotide)) is “one animal”. In addition, the “Bone marrow, myeloid/erythroid ratio, mean score” value in data set [1] (15 MBq x 4, end of study, vehicle 1.2) was 2.7. Further, in the data set “in vivo” (15 MBq, Adrenals uptake), the tissue uptake at 96 h turned out to be 0.7 %ID/g. Moreover, the tissue uptake at 96 h in “in vivo” (15 MBq, Femur uptake) was 0.08 %ID/g. Also, the tissue uptake at 96 h in the data set “in vivo” (15 MBq, Kidneys uptake) turned out to be 2.9 %ID/g. Further, the tissue uptake at 96 h in the data set “in vivo” (15 MBq, Spleen uptake) was determined as 0.072 %ID/g. For the same molecule, in “in vivo” (setting [4]), the tissue uptake at 96 h came to 0.082 %ID/g. Besides, the tissue uptake at 96 h in the data set “in vivo” (setting [5]) was found to be 20 %ID/g. Moreover, in data set [2] (15 MBq x 4), the Tumour radioactivity uptake is recorded as 3.5 MBq/g, the Femur radioactivity uptake was 0.014 MBq/g, the Spleen radioactivity uptake is 0.013 MBq/g and the Adrenals radioactivity uptake came out at 0.12 MBq/g. Moreover, in data set [2] (15 MBq x 4), the Kidneys radioactivity uptake is recorded as 0.51 MBq/g and the Tail radioactivity uptake stood at 0.015 MBq/g. Moreover, in data set [2] (setting [6]), the “Mean femur radioactivity uptake versus [^177Lu]Lu-DOTA-TATE” value was “two times higher”, the “Mean kidney radioactivity uptake versus [^177Lu]Lu-DOTA-TATE” value was “up to eight times higher” and the “Mean tumour radioactivity uptake versus [^177Lu]Lu-DOTA-TATE” value is “up to three times higher; also recorded: approximately three times higher tumour uptake”. The “Correlation of radioactivity uptake with SST2 expression levels in organs” value in data set [2] (15 MBq) is given as “overall well-correlated with SST2 expression levels in different organs, except in the kidneys”. In addition, the “Renal uptake and potential renal toxicity” value in the data set with kidney was “limited”. The molecule further displayed an equilibrium dissociation constant (Kd) in data set [3] of 0.088 ± 0.01 nM.

As for Pasireotide, in the data set with human and rat SST2, the “Species difference human versus rat SST2” value was “species dissimilarities between human and rat SST2”.

(Values after publication PMC9506113 (Pharmaceuticals, 2022).)
